Experimental data taken from patent US20250051443A1 (NATIONAL RESEARCH COUNCIL OF CANADA, published 2025).

Key:
human CD3 [1] = biological target: T1, human CD3 (human, UniProt P07766 23-207; P09693 23-182; P04234 22-171); assay: cell-based or functional assay
human CD3 [2] = biological target: T1, human CD3; assay: flow cytometry, hybridoma supernatant on CD3+ Jurkat cells
Experimental: Cells were stained with either negative control mouse IgG (Jackson Immunoresearch cat #115-000-003) or an anti-GFP 3E6 mAb supernatant or tested hybridoma supernatant. Specific binding was reflected by the increase in the mean fluorescent intensity of antibody binding to Jurkat T-cells (FIGS. 1A to 1F, grey histograms) compared to the Jurkat CD3 negative cell line J.RT3-T3.5 (FIGS. 1A to 1F, open histograms). AF488 labeled positive control mAb OKT3 was also analyzed.

human CD3 [3] = biological target: T1, human CD3; assay: apparent KD (KDapp), flow cytometry titration on Jurkat cells
Experimental: Unless otherwise stated, all media are kept are 4° C. and all incubations are performed on wet ice. Exponentially growing Jurkat cells were centrifuged and resuspended in complete medium at a cell density of 2×10⁶ cells/mL. Fifty μL/well of cells were distributed in a polypropylene v-bottom 96 well plate and serial 1/3 dilutions of purified mAbs starting at 300 nM were added and incubated for 2 hours. Cells were washed twice by centrifugation and further incubated with a FITC labeled F(ab′)2 goat anti-mouse antibody (Fc specific, #115-096-071, Jackson Immunoresearch, Cedarlane, Burlington, ON) for an hour. Cells were washed and re-suspended in medium containing Propidium iodide to exclude dead cells from analysis. Samples were filtered through a 60 μm nylon mesh filter plate (Millipore, Ireland) to remove cell aggregates. Flow cytometry analyses were performed on 2,000 viable single-cells events gated on forward scattering, side scattering parameters and propidium iodide dye exclusion using a BD-LSRFortessa flow cytometer (Becton-Dickinson Biosciences, CA, USA) and a standard filter set using BD FACSDiva™ acquisition software, according to manufacturer's instructions.

Cynomolgus CD3 = biological target: T2, Cynomolgus CD3 (Cynomolgus, UniProt Q95LI5 22-198; Q95LI7 23-181; Q95LI8 22-171); assay: apparent KD (KDapp), flow cytometry titration on cynomolgus HSC-F T cell line
T2 construct: whole, on cells; also called CD3 on Cynomolgus PBMCs; CD3 on HSC-F Cynomolgus T cell line
Experimental: To characterize potential cross-reactivity of the anti-human CD3 mAbs to NHP T cells, dose response flow cytometry titration studies were performed on both freshly obtained Cynomolgus PBMCs (Comparative Medicine and Animal Resources Centre—McGill University) or the Cynomolgus derived T cell line, HSC-F (Non-Human Primate Reagent Resource—NIH). Binding studies on fresh Cynomolgus PBMCs was performed on a subset of anti-CD3 mAbs (FIG. 4) whereas the Herpesvirus saimiri immortalized Cynomolgus T cell line HSC-F was employed for further evaluations (FIGS. 5A to 5C). KDapp values were calculated using a non-linear regression model of one-site binding with Hill slope (GraphPad Prism) and tabulated (Table 3b). Similar KDapp values for anti-CD3 mAb 1E2 obtained from binding to fresh Cynomolgus PBMCs (KDapp=0.28 nM) or the HSC-F T cell line (KDapp=0.39 nM) indicated the HSC-F cell line was a suitable surrogate for ex vivo NHP T cells.
HSC-F T cells obtained from the Non-Human Primate Reagent Resource (NIH) were maintained in culture in RPMI media containing 20% FBS and 40 IU/mL recombinant human IL2. 100K HSC-F cells in logarithmic cell growth were treated with graded doses of the anti-CD3 mAbs starting at 100 nM in staining buffer (SB; PBS/1% BSA/0.01% NaN3) for 2 hours at 4° C. in 96 w V-bottom plates. Following plate washing with SB, the cell pellets were resuspended with 25 μL of goat (Fab′)₂ anti-mouse IgG (H+L)− APC secondary antibody (final 5 μg/mL), incubated for 30 minutes at 4° C., followed by flow cytometry analysis. The commercial NHP cross-reactive SP34.2 anti-CD3 mAb (BD Biosciences), recombinant anti-human OKT-3 IgG2b (in house produced) and non-specific mIgG were employed as controls. 20K live events were acquired on a BD LSRFortessa flow analyzer and mean fluorescence intensities (MFI) calculated after subtraction of secondary antibody alone values. Using GraphPad Prism software, the data were analyzed using a one site specific binding with Hill slope non-linear regression model to calculate KDapp and BMax values (See Table 2).

human CD3 [4] = biological target: T1, human CD3; assay: flow competition on Jurkat, 100 nM unlabeled mAb; competitor AF488-SK7 1.5 nM
Experimental: (§1) In order to evaluate whether anti-CD3 monoclonal antibodies bind to the same epitope region, flow cytometry competition experiments on Jurkat cells were performed.
(§2) To that effect, a fixed concentration of the indicated AF488-labeled mAb were incubated with 100 nM of unlabeled monoclonal antibodies to assess if their binding capacity was impaired in presence of unlabeled mAbs. […] The AF488-OKT3 mIgG2b was labeled in-house using AlexaFluor488 protein labelling kit (Invitrogen #A10235) following manufacturer's instruction. The free dye removal step was done using Zeba™ Spin Desalting Columns, 7K MWCO (Thermo Scientific #89890). The final product was analyzed by UPLC-SEC to ensure the integrity of the labeled mAb.

human CD3 [5] = biological target: T1, human CD3; assay: flow competition on Jurkat, 100 nM unlabeled mAb; competitor AF488-UCHT1 5 nM
Experimental: as §1, §2

human CD3 [6] = biological target: T1, human CD3; assay: apparent KD (KDapp), flow cytometry titration on purified primary human T cells
Experimental: The binding characteristics of the purified anti-CD3 mAbs were assessed in titration studies on purified human primary T cells from different donor samples. Fresh ex vivo peripheral blood mononuclear cells (PBMCs) were obtained via density centrifugation over Ficoll-Paque using standard procedures and untouched T cell fractions obtained from PBMCs by negative pan-T cell selection and magnetic cell sorting. Starting from 300 nM concentrations of the anti-CD3 mAbs, eight point binding curves were generated from the resultant mean fluorescence intensity (MFI) values obtained through detection of labelled secondary antibody to bound CD3 in flow cytometry experiments (FIGS. 3A and 3B). Both commercial mouse anti-human CD3 mAb (OKT-3; Biolegend) and an in house generated IgG1 version of OKT-3 were employed as positive controls together with a non-specific mouse IgG serving as a negative binding control. Following curve fit analysis using one-site specific binding with Hill slope, the KDapp (concentration needed to achieve a half-maximum binding at equilibrium) for each mAb was calculated (Table 2).
Eight point binding titrations were performed with the anti-CD3 mAbs starting at either 300 or 100 nM on freshly purified human T cells obtained through negative selection from PBMC fractions. Briefly, 1×10⁵ human T cells (50 μL of staining buffer (SB; PBS/1% BSA/0.01% NaN3) were incubated with graded dilutions of the anti-CD3 mAbs in SB ([…]) for 2 hours at 4° C. in 96 w U-bottom plates, followed by plate washing with SB ([…]). Cell pellets were resuspended with 25 μL of a 0.25 mg/mL solution of the goat (Fab′)₂ anti-mouse IgG (H+L)− APC secondary antibody in SB, incubated at 4° C. (30 min.), washed 1× with SB, and resuspended for flow analysis. Recombinant anti-human OKT-3 IgG2b (in house produced) and non-specific mIgG were employed similarly as positive and negative controls respectively. 10K live events were acquired on a BD LSRFortessa flow analyzer and mean fluorescence intensities (MFI) calculated after subtraction of secondary antibody alone values. Using GraphPad Prism software, the data were analyzed using a one site specific binding with Hill slope non-linear regression model to calculate KDapp and BMax values (See Table 2).

human CD3 [7] = biological target: T1, human CD3; assay: flow competition on Jurkat, 100 nM unlabeled mAb; competitor AF488-SP34.2 20 nM
Experimental: as §1, §2

human CD3 [8] = biological target: T1, human CD3; assay: flow competition on Jurkat, 100 nM unlabeled mAb; competitor AF488-OKT-3 mIgG2b 1.5 nM
Experimental: as §1, §2

T2 sequence (Q95LI5 22-198, chain 1 of 3): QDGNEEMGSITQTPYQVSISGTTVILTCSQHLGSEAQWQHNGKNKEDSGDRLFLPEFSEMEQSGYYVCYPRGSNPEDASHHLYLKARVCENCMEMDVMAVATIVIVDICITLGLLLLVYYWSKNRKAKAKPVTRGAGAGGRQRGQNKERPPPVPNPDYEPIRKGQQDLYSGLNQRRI
T2 sequence (Q95LI7 23-181, chain 2 of 3): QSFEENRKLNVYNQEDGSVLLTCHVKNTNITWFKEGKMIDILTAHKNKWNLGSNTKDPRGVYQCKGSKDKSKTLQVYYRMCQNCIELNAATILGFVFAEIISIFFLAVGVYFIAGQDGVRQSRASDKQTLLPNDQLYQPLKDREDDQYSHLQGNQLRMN
T2 sequence (Q95LI8 22-171, chain 3 of 3): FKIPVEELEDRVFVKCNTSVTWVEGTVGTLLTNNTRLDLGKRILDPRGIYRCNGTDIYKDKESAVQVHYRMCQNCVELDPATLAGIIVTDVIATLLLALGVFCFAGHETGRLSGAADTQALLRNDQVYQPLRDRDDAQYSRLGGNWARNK

| Binder | % max ref. OKT3 (dTomato activation) (human CD3 [1]) | EC50 of dTomato induction (CD69 promoter), Jurkat-CD69-dTomato cells, 24 h (human CD3 [1]) | MFI (human CD3 [2]) | Kd (human CD3 [3]) | Kd (Cynomolgus CD3) | % residual fluorescence of labeled mAb (human CD3 [4]) | % residual fluorescence of labeled mAb (human CD3 [5]) | Kd (human CD3 [6]) | % residual fluorescence of labeled mAb (human CD3 [7]) | % residual fluorescence of labeled mAb (human CD3 [8]) |
| --- | --- | --- | --- | --- | --- | --- | --- | --- | --- | --- |
| F332-7E3 (antibody, mouse IgG2a, V domains shown, also called F332-7E3-2) VH: QVQLQQPGAELGKPGTSVKLSCKASGYTFTSYWIHWVKQRPGQGLEWIGNINPNSGSINYNEKFKSKATLTVDKSSSTAYMQLSTLTSEDFAVYYCTRDTSGQYYFDYWGQGTTLTVSS VL: DIVMSQSPSSLAVSAGEKVTMSCKSSQSLLNSRTRKNYLAWYQQKPGQSPKLLIYWASTRESGVPDRFTGSGSGTDFTLTISSVQAEDLAVYYCKQSYHLRTFGGGTKLEIK | 75% | 0.24 µg/mL | 354 MFI | 1.3 nM | 0.31 nM | 45% | 67% | 0.22 nM | 12% | 79% |
| F332-7B7 (antibody, mouse IgG2a, V domains shown, also called F332-7B7-2) VH: QVQLQQPGTELGKPGTSVKLSCKASGYTFTNYWMHWVKQRPGQGLEWIGNINPNSGSTNYNQKFKSKATLTLDKSSSTAYMQFSTLTSEDSAVYYCTRDSSGQYYFDYWGQGTTLTVSS VL: DIVMSQSPSSLAVSAGEKVTMSCKSSQSLLNSRTRKNYLAWYQQKPGQSPKLLIYWASTRESGVPDRFTGSGSGTDFTLTISSVQAEDLAVYYCIQSFHLRTFGGGTKLEIK | 97% | 0.25 µg/mL | 302 MFI | 0.6 nM | 0.28 nM | 53% | 79% | 0.23 nM | 9% | 86% |
| F332-8F7 (antibody, mouse IgG2a, V domains shown, also called F332-8F7-3) VH: QVQLQQPGAELGKPGTSVKLSCKASGYTFTSYWIHWVKQRPGQGLEWIGNINPNSGSTNYNEKFKNKATLTVDKSSSTASMQLSTLTSEDSAVYYCTRDISGQYYFDYWGQGTTLTVSS VL: DIVMSQSPSSLAVSTGGEVTMSCKSSQSLLNSRTRKNYLAWYQQKPGQSPKLLIYWASTRESGVPDRFTGSGSGTDFTLTISSVQAEDLAVYYCIQSYSLRTFGGGTKLGIK | 80% | 0.22 µg/mL | 312 MFI | 0.8 nM | 0.97 nM | 39% | 59% | 0.26 nM | 10% | 87% |
| F332-12F6 (antibody, mouse IgG2a, V domains shown, also called F332-12F6-2) VH: QVQLQQPGAELGKPGTSVKLSCKASGYTFTSYWIHWVKQRPGQGLEWIGNINPNSGSTNYNEKFKSKATLTVDKSSSTAYMQLSTLTSEDSAVYYCTRDISGQYYFDYWGQGTTLTVSS VL: DIVMSQSPSSLAVSAGEKVTMSCKSSQSLLNSRTRKSYLAWYQQKPGQSPKLLIYWASTRESGVPDRFTGSGSGTDFTLTISSVQAEDLAVYYCIQSYNLRTFGGGTKLEIK | 87% | 0.25 µg/mL | 369 MFI | 0.6 nM | 0.61 nM | 42% | 63% | 0.2 nM | 7% | 82% |
| F332-5D4 (antibody, mouse IgG2b, V domains shown, also called F332-5D4-2; F332-5D4 (5F8)) VH: QVQLQQPGAELGKPGTSVKLSCKASGYTFTSYWMHWVKQRPGQGLEWIGNINPNGGDSNYNEKFKSKATLTVDMSSSTAYMQLSTLTSEDSAVYYCTRDISGQYYFDFWGQGTSLTVFS VL: DILMSQSPSSLAVSAGEQVTMSCKSSQSLLNSRTRKNYLAWYQQKPGQSPKLLIFWASTRKSGVPDRFTGSGSGTYFTLTINSVQTEDLAVYYCTQSYSLRTFGGGTKLEIK | 109% | 0.27 µg/mL | 326 MFI | 0.7 nM | 0.64 nM | 49% | 73% | 0.61 nM | 10% | 93% |
